Reference: publication PMC2655680

target: PNK-FHA (FHA domain of human polynucleotide kinase 3'-phosphatase, amino acids 1-109) (human) (UniProt Q96T60); assay: ITC

Substance | Kd [µM] | stoichiometry N
XRCC1 peptide YAGpSpTDENpTDSE, phosphorylated on Ser518, Thr519 and Thr523 |  | 0.46
XRCC1 peptide YAGpSTDENpTDSE, phosphorylated on Ser518 and Thr523 | 24.2 | 

Second part, the substance after the results:

Kd [µM] | stoichiometry N | Substance
0.76 | 0.51 | XRCC1 peptide YAGSpTDENpTDSE, phosphorylated on Thr519 and Thr523
1.23 | 0.51 | XRCC1 peptide YAGpSpTDENTDSE, phosphorylated on Ser518 and Thr519
13.5 |  | XRCC1 peptide YAGSTDENpTDSE, phosphorylated on Thr523
10.6 |  | XRCC1 peptide YAGSpTDENTDSE, phosphorylated on Thr519

target: PNK-FHA (FHA domain of human polynucleotide kinase 3'-phosphatase, amino acids 1-109) (human) (UniProt Q96T60); assay: ITC; remark: another data set of the same source

Kd [µM] | Substance
0.7 | XRCC1 peptide YAGSpTDENpTDSE, phosphorylated on Thr519 and Thr523
